From patent publication US20200071380A1, “COMBINATION THERAPIES COMPRISING SIRP ALPHA-BASED CHIMERIC PROTEINS” (Shattuck Labs, Inc., priority 2018, published 2020)

How the values were obtained:
FcγR-Ia = FcγR-Ia (Homo sapiens, UniProt P12314); test: SPR binding to FcγR-Ia; conditions: surface plasmon resonance (SPR)
Excerpt: Scale is shown and yellow arrows correspond with each identified monomer. A schematic of the hexamer species is shown to the right, depicting dimerization of the Fc domain and trimerization of the CD40L domain. […] Recombinant hSIRPα-Fc, hCD40L-Fc, and hIgG1 were used as positive controls. […] In both panels, the CHOK1 Parental is on the left and the CHOK1/hCD47 is on the right. […] For both graphs, the CHOK1 Parental is on the bottom. […] In this figure, the control is the top curve, the SIRPα-Fc-CD40L is the middle curve, and the anti-CD47 is the bottom curve.
The extracellular domain (ECD) of SIRPα and the ECD of CD40L were fused via an antibody Fc domain to generate SIRPαECD-Fc-CD40LECD chimeric proteins. When human proteins were used, the chimeric protein is referred to as hSIRPα-Fc-CD40L; when murine proteins were used, the chimeric protein is referred to as and mSIRPα-Fc-CD40L. […] The purified protein was then analyzed for the presence of each individual domain by Western blotting using anti-SIRPα, anti-Fc, and anti-CD40L antibodies (FIG. 3A, bottom). […] Next, binding affinities for SIRPα-Fc-CD40L to recombinant CD47, CD40, or Fc receptors were evaluated by surface plasmon resonance (SPR). […] A functional ELISA evaluated whether SIRPα-Fc-CD40L could outcompete a commercially available single-sided SIRPα-Fc control for binding to recombinant CD47 (FIG. 3H).

FcγR-IIb = biological target: T1, FcγR-IIb (Homo sapiens, UniProt P31994); test: SPR binding to FcγR-IIb; conditions: surface plasmon resonance (SPR)
T1 sequence (P31994 43-310): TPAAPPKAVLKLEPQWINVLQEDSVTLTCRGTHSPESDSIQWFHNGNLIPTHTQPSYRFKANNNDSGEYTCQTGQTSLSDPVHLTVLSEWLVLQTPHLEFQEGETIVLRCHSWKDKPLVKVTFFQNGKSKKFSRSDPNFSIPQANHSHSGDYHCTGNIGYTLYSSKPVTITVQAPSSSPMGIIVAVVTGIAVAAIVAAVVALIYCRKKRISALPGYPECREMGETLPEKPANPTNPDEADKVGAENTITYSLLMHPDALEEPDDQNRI
Excerpt: (§1) The extracellular domain (ECD) of SIRPα and the ECD of CD40L were fused via an antibody Fc domain to generate SIRPαECD-Fc-CD40LECD chimeric proteins. When human proteins were used, the chimeric protein is referred to as hSIRPα-Fc-CD40L; when murine proteins were used, the chimeric protein is referred to as and mSIRPα-Fc-CD40L. Generically, the chimeric protein is referred to as SIRPα-Fc-CD40L. […] Mammalian cells were then transfected with the hSIRPα-Fc-CD40L expressing construct, and the secreted protein was purified from conditioned media by affinity chromatography. The purified protein was then analyzed for the presence of each individual domain by Western blotting using anti-SIRPα, anti-Fc, and anti-CD40L antibodies (FIG. 3A, bottom). […] The reduced and deglycosylated form of the protein migrated at the predicted monomeric molecular weight of 90.1 kDa. […] Next, binding affinities for SIRPα-Fc-CD40L to recombinant CD47, CD40, or Fc receptors were evaluated by surface plasmon resonance (SPR). […] Finally, to confirm that SIRPα-Fc-CD40L interacted with native CD47 and CD40 in a similar manner to recombinant CD47 and CD40, CHOK1-hCD47 and CHOK1-hCD40 reporter cell lines were developed (FIG. 3F). […] A functional ELISA evaluated whether SIRPα-Fc-CD40L could outcompete a commercially available single-sided SIRPα-Fc control for binding to recombinant CD47 (FIG. 3H).

FcγR-IIIb = FcγR-IIIb (Homo sapiens, UniProt O75015); test: SPR binding to FcγR-IIIb; conditions: surface plasmon resonance (SPR)
Chain of FcγR-IIIb (O75015 17-200): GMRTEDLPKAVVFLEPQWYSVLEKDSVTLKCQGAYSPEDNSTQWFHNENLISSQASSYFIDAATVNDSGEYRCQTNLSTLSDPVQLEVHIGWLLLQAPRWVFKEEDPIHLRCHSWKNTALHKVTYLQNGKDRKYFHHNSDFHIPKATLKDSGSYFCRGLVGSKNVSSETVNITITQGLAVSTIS
Excerpt: as §1

[1] = tested on: CD8+ T cell-depleted PBMC; test: Proliferation of CD8+ T cell-depleted PBMC ([3H]-thymidine); format: cell-based, human; conditions: 0.3, 3, 30, or 300 nM; 7-day culture
Procedure: (§2) Here, proliferation was assessed via [^3H]-Thymidine incorporation on days 5, 6, and 7. The order of samples (in triplicate) along the X-axis is media only, KLH, Exenatide, 0.3 nm SIRPα-Fc-CD40L, 3 nm SIRPα-Fc-CD40L, 30 nm SIRPα-Fc-CD40L and 300 nm SIRPα-Fc-CD40L. […] Here, proliferation was assessed by ELISpot. The order of samples (in triplicate) along the X-axis is media only, KLH, Exenatide, 0.3 nm SIRPα-Fc-CD40L, 3 nm SIRPα-Fc-CD40L, 30 nm SIRPα-Fc-CD40L and 300 nm SIRPα-Fc-CD40L.
(§3) The observation that SIRPα-Fc-CD40L stimulated CD40 signaling prompted investigation of other cellular functions that depend upon CD40 signaling. CD8+ T cell-depleted PBMC were isolated from a total of 33-50 different human donors and cultured in the presence of a dose-titration of hSIRPα-Fc-CD40L (FIG. 6A and FIG. 6B).

[2] = tested on: CD8+ T cell-depleted PBMC; test: IL-2 ELISpot of CD8+ T cell-depleted PBMC; format: cell-based, human; conditions: day 8 of the culture
Procedure: as §2, §3

[3] = Repeat-dose safety and activity study in cynomolgus macaques; format: in vivo; conditions: intravenous infusion every week for five weeks, 0.1, 1, 10 and 40 mg/kg
Procedure: FIG. 21A-D is a graph showing cynomolgus macaques that were treated with vehicle, or 0.1, 1, 10, and 40 mg/kg of SIRPα-Fc-CD40L. Blood chemistry analysis assessed peripheral erythrocyte counts (FIG. 21A), hemoglobin levels (FIG. 21C), and hematocrit (FIG. 21B). In addition, the fold-change in lymphocyte count from pre-dose to 24 hours post-dose is shown (FIG. 21D).
The experiments of this example tested the safety and activity of the human SIRPα-Fc-CD40L chimeric protein following repeat doses in cynomolgus macaques. Briefly, naïve cynomolgus macaques were administered the human SIRPα-Fc-CD40L chimeric protein by intravenous infusion every week, for five consecutive weeks, at doses of 0.1, 1, 10 and 40 mg/kg. Standard hematology and clinical chemistry parameters were collected before and after each dose.
Receptor occupancy was evaluated on circulating CD40+ lymphocytes.

Chain of FcγR-Ia (P12314 16-374): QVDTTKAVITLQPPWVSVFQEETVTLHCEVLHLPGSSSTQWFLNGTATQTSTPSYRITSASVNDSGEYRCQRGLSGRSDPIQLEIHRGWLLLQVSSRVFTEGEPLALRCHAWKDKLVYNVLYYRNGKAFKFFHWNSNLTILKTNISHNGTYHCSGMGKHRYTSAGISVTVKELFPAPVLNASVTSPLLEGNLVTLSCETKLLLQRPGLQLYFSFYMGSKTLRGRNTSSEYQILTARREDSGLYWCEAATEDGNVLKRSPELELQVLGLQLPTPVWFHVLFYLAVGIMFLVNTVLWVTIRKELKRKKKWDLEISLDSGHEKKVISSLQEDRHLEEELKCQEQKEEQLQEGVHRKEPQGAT

binding to FcγR-Ia (FcγR-Ia): undetectable binding
binding to FcγR-IIb (FcγR-IIb): undetectable binding
binding to FcγR-IIIb (FcγR-IIIb): undetectable binding
Substance: hSIRPα-Fc-CD40L: Chimeric protein: human SIRPα extracellular domain fused via an antibody Fc domain to human CD40L extracellular domain (SEQ ID NO: 60)
proliferation of human PBMC [1]: dose-dependent proliferation of human PBMC
number of IL-2-secreting PBMC [2]: dose-dependent increase in the number of IL-2-secreting PBMC
hemolysis or thrombocytopenia [3]: no evidence of hemolysis or thrombocytopenia
